From the nanobody polyreactivity screen of Harvey et al. (2022)

Assay: yeast display, Sf9 membrane polyspecificity reagent, FACS + sequencing; frameworks hold sequencing errors
Outline: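 A synthetic nanobody library was expressed on Saccharomyces cerevisiae BJ5465 by galactose induction for 36–48 hours. The library was stained for 1 hour at 4 °C with 10% biotinylated, detergent-solubilized Sf9 membrane reagent and enriched with streptavidin microbeads before FACS. Low and high (top ~1%) gates were set on anti-HA fluorescence for expression and streptavidin fluorescence for reagent binding, and each polyreactivity label reflects the gate of origin.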

Sequence | polyreactivity (PSR sort gate)
QVQLVESGGGLVQAGGSLRLSCAASGFTSNYYAMGWYRQAPGKERELVAAITTGGSTHYADSVKGRFTISRDNAKNTVYLQMNSLKPEDTAVYYCAAGTNRQQQRYFHPGGYYQYNYWGQGSQVTVSS | low polyreactivity
QVQLVESGGGLVQAGGSLRLSCAASGFIFRLNTMGWYRQAPGKERELVATISSGGSTNYADSVKGRFTISRDNAKITVYLQMNSLKPEDTAVYYCAKKKTRYGGSYNYWGQGTQVTVSS | high polyreactivity
QVQLVESGGGLVQAGGSLRLSCAASGRIFYSYAMGWYRQAPGKERELVAAISFSVGSTYYADSVKGRFTISRDNAKNTVYLQMNSLKPEDTAVYYCATGWYYTSTTYRSSDFDYWGQGTQVTVSS | low polyreactivity
QVQLVESGGGLVQAGGSLRLSCAASGFIFVAYAMGWSRQAPGKERELVAAITSSGGRTYYADSVKGRFTISRDNAKNTVYLQMNSLKPEDTAVYYCAARVYRSAKGYNYWGQGTQVTVSS | high polyreactivity
QVQLVESGGGLVQAGGSLRLSCAQSGFTKSTYTMGWYRQAPGKESELVAAIRRSGDSTYYGDSVKGRFTISRDHAKNTVYLQMKRLKPEDTAVYYSNAVRYRFERYDYWGQGTQVTVSS | high polyreactivity
QVQLVESGGGLVQAGGSLRLSCAASGFTFPDYAMGWYRQAPGKEREMVAAISSDGSTYYADSVKGRFTISRDNAKNTVYLQMNSLKPEDTAVYYCAAYVVWLYGYDYWGQGTLVTVSS | low polyreactivity
QVQLVESGGGLVQAGGSLRLSCAASGRIFYLYAMGWYRQAPGKERELVASINSGDSTHYADSVKGRFTISRDNAKNTVYLQMNSLKPEDTAVYYCATRRYTRSRWYDYWGQGTQVTVSS | low polyreactivity
QVQLVESGGGLVQAGGSLRLSCAASGFTFPENAMGWYRQAPGKERELVAAISYRGASTFYADSVKGRFTISRDNAKNTVYLQMNSLKPEDTAVYYCATDPRIRYQGNPYDYWGQGTKVTVSS | high polyreactivity
QVQLVESGGGLVQAGGSLRLSCAASGFTFRKNAMGWYRQAPGKERELVAAISSGTSTYYADSVKGRFTISRDNAKNTVYLQMNSLKPEDTAVYYCAAARYRTDDYWGLGTQVTVSS | high polyreactivity
QVQLVESGGGLVQAGGRLRLSCAASGIIFQYNAMGWYRQAPGKEREFVAAISYGGTSTYYADSVKGRFTISRDNAKNTVYLQMNSLKPEDTAVYYCAADYQGYTPSDGRYYWGQGTQVTVSS | low polyreactivity
QVQLVESGGGLVQAGGSLRLSCAASGSIFTVYAMGWYRQAPGKERELVAAISRRGGSTYYADSVKGRFTISRDNAKNTVYLQMNSLKPEDTAVYYCAALERTLDNKYQFGYWGQGTEVTVSS | high polyreactivity
QVQLVESGGGLVQAGGSLRLSCAASGTTIPRNAMGWYRQAPGKERELVAAITSGGSTNYADSVKGRFTISRDNAKNTVYLQMNSLKPEDTAVYYCAADEQVNTQYVVWGDYWGQGTQVTVSS | low polyreactivity
QVQLVESGGGLVQAGGSLRLSSAASGRTFEVYAMGWYRQAPGKERELVATITYSGGITYYADSVKGRFTISRDNAKNTVYLQMNSLKPEDTAVYYPIGVGGDYDYWGQGTQVTVSS | low polyreactivity
QVQLVESGGGLVQAGGSLRLSCAASGFIFYYNAMGWYRPAPGTERELVATINNDGGSSTYADSVKGRFTISRDNAKNTVYLQMNSLKPEDTAVYYCNAEAFYFTHTVWIPYYYWGQGTQVTVLS | low polyreactivity
QVQLVESGGGLVQAGGSLRLSCAASGRIFRRYAMGWYRQAPGKERELVAALTRSGGSTYYADSVKGRFTISRDNAKNTVYLQMNSLKPEDTAVYYCYAPSSLGTDYDYWGQGTQVTVSS | high polyreactivity
QVQLVESGGGLVQSGGSLRLSCAASGSIFGYYAMGWYRRAPGKERELVAAISVSGGSTYYADSVKGRFTISRDNAKNTVYLLMNSLKPEDTAVYYCNKVQGSWRVPYYYWGQGTQVTVSS | high polyreactivity
QVQLVETGGGLVQAGGSLRLSCAASGYNLNSNAMGWYRQAPGKEREFVASITESGGTTYYADSVKGRFTISRDNAKNTVYLQMNSLKPEDTAVYYCAADLVDWWYSSDLYDYWGQGTQVTVSS | high polyreactivity
